{"source": "paper PMC11701102", "about": "“Structural insights into the interplay between microtubule polymerases, γ-tubulin complexes and their receptors” (Nature Communications, 2025)", "binders": {"B1": {"name": "FLAG-Stu2 (C. albicans, full length) (natural protein, UniProt A0A1D8PTZ8 1-924, looked up)", "chain": "MSTEEEDYSNLSLEERFVHKVWKVRLQAYEELATNIENSRNESDPIFTSLSLDNLKKMILDSNVVAQETGYNTFNKFLIFGGNAANVSKLKNLGIIGSICEKGLLSSRKNTKEWSVESILLMIEISNDPNSIVEDILPYLTNRLPKLVTGCVSCLASIIENFGCKIISPKPIVPCLSKLFAHADKNVRNETTKLTIELYRWMGDALINALFSDLKPVQQKDLTAAFEKEKGTSPQQKRYTKKQREEIERREQEAAAAAAAAAATTAGNGGGNGDDVDDVEMSDVNGVTDDNEYDPLEFVDPVEVLNKFPSDFDSRISSSKWKDRKEVLEEIIPILEKSPKLITTDDYLPVLRIWAKCMKDANIQVVQLAANCIEFVIKGLGNEFSKYQSVVLTPVVERLKEKKPSVATALDNVLDALFNLSGFGNGVLDEAINGMKLKTPQNKIASANFVKRCLSTTKIPPKTSEIDAIMEVGIKLLSESQEPIRQAATEMIGTLMKITGPRELKPFLEKVDENRKNKINDYYEETAQVKTTMANASKSSSVASGSRNVSTAGGSFSSSTMKPPSKSSQDRKTSSGASSIIPAKRTASSPAKRDEVKNGRGMTARSLAKPNIPSLRPPTNVTQDSSGDGSSFSQQQQQQQVPSTSTGGGSGGAQSMISSVTNEEVNLLKQQIIKLQEEVQNYKNQQESHLKTIKLLEESNNNYREEIESVKRELSNEKRNATITTNHKDTHINNLKSELEKANYRIKDLEQEREINRLQQSNLAFERSNISSSNSRNSFYKPSPNKFAPSDISTGVKRLSIGGEENNHFGGGGGASPNFHNNTIHSTNTTTSTTATASGAGIGTGVGTGTGTGTGTGMGISRPTNSFRSSVNYGSTSSLTSSSRRESMDIDNGADWKRAAEVTLQLKARIERMKARTRSPLNIE", "notes": "Stu2, C. albicans, full-length Met1 to Glu924; FLAG tag followed by an HRV 3C cleavage site at the 5' end; also called wild-type FLAG-Stu2; source: Sf21 insect cells; not shown: FLAG, N-terminal, kept"}}, "key": {"[1]": {"target": "the molecule itself", "test": "SEC-MALS + other: mass photometry; FLAG-Stu2 (10 µM) and His-Spc72^291-599 (60 µM) alone or mixed 1:1 (vol), Superdex 200 Increase 5/150, 50 mM Tris-HCl pH 7.5, 150 mM NaCl, room temperature; mass photometry below 40 nM"}, "[2]": {"target": "T1, His-Spc72^1-599 (C. albicans), co-expressed in insect cells (C. albicans, UniProt Q5AGV5 1-599)", "T1 construct": "Only the CM1 motif is resolved in the cryo-EM map, as a parallel dimeric coiled coil; source: Sf21 insect cells, MultiBac co-expression with γ-TuSC components and FLAG-Stu2 or His-GFP-Mzt1", "T1 sequence (looked up)": "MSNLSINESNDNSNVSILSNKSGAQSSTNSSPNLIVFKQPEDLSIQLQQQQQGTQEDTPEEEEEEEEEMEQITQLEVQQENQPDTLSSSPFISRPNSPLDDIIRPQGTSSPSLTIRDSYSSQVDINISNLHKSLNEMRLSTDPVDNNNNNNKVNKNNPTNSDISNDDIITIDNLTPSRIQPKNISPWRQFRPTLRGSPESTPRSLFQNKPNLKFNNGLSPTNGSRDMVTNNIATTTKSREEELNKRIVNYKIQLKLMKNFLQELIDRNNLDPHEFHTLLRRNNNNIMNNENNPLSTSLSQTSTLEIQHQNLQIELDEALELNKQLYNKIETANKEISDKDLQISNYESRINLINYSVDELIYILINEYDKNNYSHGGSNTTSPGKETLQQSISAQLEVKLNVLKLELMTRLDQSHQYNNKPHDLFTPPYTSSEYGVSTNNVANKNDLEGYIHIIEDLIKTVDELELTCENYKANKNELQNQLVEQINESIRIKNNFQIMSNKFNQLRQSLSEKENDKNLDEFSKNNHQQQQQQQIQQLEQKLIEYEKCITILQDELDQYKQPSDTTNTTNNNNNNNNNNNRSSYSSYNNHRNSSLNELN", "test": "SEC; FLAG-purified γ-TuSC/His-Spc72^1-599/FLAG-Stu2 on Superose 6 Increase 10/300 in HB100 buffer (40 mM K-HEPES pH 7.4, 100 mM KCl); fractions by SDS-PAGE, Western blot and gel densitometry; ring-like oligomers also seen by negative stain EM", "settings": "both partners purified"}}, "data": [{"binder": "B1", "values": [{"measurement": "stoichiometry N", "setting": "[1]", "value": 2}, {"measurement": "stoichiometry N", "setting": "[2]", "value": "< 2 Stu2 dimers per Spc72 dimer"}]}]}
